According to doi:10.1101/2020.02.13.948224 (bioRxiv, 2020):
Positions count from the first letter of the chain named.

B1: mouse N1ICD (aa 1744-2113) (domain or fragment, UniProt Q01705 1744-2113, looked up)
chain: VLLSRKRRRQHGQLWFPEGFKVSEASKKKRREPLGEDSVGLKPLKNASDGALMDDNQNEWGDEDLETKKFRFEEPVVLPDLSDQTDHRQWTQQHLDAADLRMSAMAPTPPQGEVDADCMDVNVRGPDGFTPLMIASCSGGGLETGNSEEEEDAPAVISDFIYQGASLHNQTDRTGETALHLAARYSRSDAAKRLLEASADANIQDNMGRTPLHAAVSADAQGVFQILLRNRATDLDARMHDGTTPLILAARLAVEGMLEDLINSHADVNAVDDLGKSALHWAAAVNNVDAAVVLLKNGANKDMQNNKEETPLFLAAREGSYETAKVLLDHFANRDITDHMDRLPRDIAQERMHHDIVRLLDEYNLVRSPQ
B2: mouse N1^RAICD (aa 1744-2113) (domain or fragment, UniProt Q01705 1744-2113, looked up)
chain: B1 chain with R231A
B3: human SMT3-MAML1 (aa 1-280) (domain or fragment, UniProt Q92585 1-280, looked up)
chain: MVLPTCPMAEFALPRHSAVMERLRRRIELCRRHHSTCEARYEAVSPERLELERQHTFALHQRCIQAKAKRAGKHRQPPAATAPAPAAPAPRLDAADGPEHGRPATHLHDTVKRNLDSATSPQNGDQQNGYGDLFPGHKKTRREAPLGVAISSNGLPPASPLGQSDKPSGADALQSSGKHSLGLDSLNKKRLADSSLHLNGGSNPSESFPLSLNKELKQEPVEDLPCMITGTVGSISQSNLMPDLNLNEQEWKELIEELNRSVPDEDMKDLFNEDFEEKKD

Key:
[1] = molecular target: the molecule itself; experiment: native gel or EMSA
[2] = molecular target: mouse RBPj (aa 53-474) (mouse, UniProt P31266 53-474); experiment: native gel or EMSA
Chain of mouse RBPj (aa 53-474) (P31266 53-474): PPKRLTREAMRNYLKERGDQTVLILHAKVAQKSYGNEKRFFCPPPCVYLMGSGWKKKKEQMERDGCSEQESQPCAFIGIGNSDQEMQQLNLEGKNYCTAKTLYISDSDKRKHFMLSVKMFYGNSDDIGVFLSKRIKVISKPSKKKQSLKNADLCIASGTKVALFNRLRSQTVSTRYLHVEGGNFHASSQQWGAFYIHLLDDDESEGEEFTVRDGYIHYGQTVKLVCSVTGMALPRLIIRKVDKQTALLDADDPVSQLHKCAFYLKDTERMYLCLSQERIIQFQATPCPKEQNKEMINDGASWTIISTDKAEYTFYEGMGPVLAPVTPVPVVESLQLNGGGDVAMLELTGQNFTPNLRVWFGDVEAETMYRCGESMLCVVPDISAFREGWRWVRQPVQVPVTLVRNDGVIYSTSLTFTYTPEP

Binder | binding result [1] | binding result [2]
B1 | binds | binds
B2 | – | binds
B3 | – | binds
